Measured values as given in paper doi:10.1101/2020.11.04.368696v1.

Test system: CC/C=C\CCO
Assay: purified protein
Details: 2 mM acetyl-CoA, 50 °C

Substance “CATec3 (CAT3_ECOLIX) (Escherichia coli; Y20F)” has a Km of 6.4 ± 2.2 mM and a kcat of 2.3 ± 0.2 s⁻¹.
